From article PMC5651854, “Reconstitution of human shelterin complexes reveals unexpected stoichiometry and dual pathways to enhance telomerase processivity” (Nature Communications, 2017) come the findings set out here.

One data set has as its target TRF2 (Homo sapiens, UniProt A0ACI8RU48 1-541). Description: EMSA (agarose); 500 nM protein; some smearing; Agarose EMSA: 50 mM Tris-HCl pH 8.0, 150 mM KCl, 2 mM MgCl2, 1 mM DTT, 10% glycerol, 0.5 mg/ml BSA, 0.02 mg/ml carrier dsDNA, 30 min 23 C (gel at 4 C); FP: same buffer without carrier DNA, 23 C. Particulars: protein: recombinant; tags: 6xHis N-term; chain copies: 2; label: 5'-32P on long strand (EMSA); 3' overhang 13 nt. For orientation: A gel shift assay detects complexes by their altered migration in electrophoresis.

Another data set deals with T1, ybbR-tagged human TIN2 (human, UniProt Q9BSI4-2 1-354, Cy3 (from CoA-Cy3, by Sfp phosphopantetheinyl transferase) on the ybbR tag).
T1 construct: The methods put the ybbR tag at the C-terminus of TIN2; the results speak of an N-terminal tag on each protein; also called TIN2 (ybbR tag); source: Tni insect cells (baculovirus), co-expressed, purified as complex, labelled with CoA-Cy3 by Sfp; not shown: His6, N-terminal, cleaved; MBP, N-terminal, cleaved
T1 sequence (looked up): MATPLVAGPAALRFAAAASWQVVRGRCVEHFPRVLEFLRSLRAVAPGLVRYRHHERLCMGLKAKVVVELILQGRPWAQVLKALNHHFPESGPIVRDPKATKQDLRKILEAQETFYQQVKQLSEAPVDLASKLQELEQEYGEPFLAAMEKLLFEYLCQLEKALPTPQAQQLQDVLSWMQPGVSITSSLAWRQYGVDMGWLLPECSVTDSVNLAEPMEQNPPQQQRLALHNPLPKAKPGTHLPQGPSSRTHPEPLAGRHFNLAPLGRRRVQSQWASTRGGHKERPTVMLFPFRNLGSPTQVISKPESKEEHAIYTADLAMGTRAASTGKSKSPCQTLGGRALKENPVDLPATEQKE
Description: fluorescence intensity of Cy3-labelled ybbR-tagged subunits on SDS-PAGE; purified complexes (5 µM) with one ybbR tag on each subunit labelled with CoA-Cy3 (10 µM) by Sfp (1 µM), 50 mM HEPES pH 7.5, 300 mM KCl, 10 mM MgCl2, 1 mM TCEP, overnight at 4 °C; band intensities normalised to TPP1. The conditions noted are these: both partners purified.

B1: C8 (mixed)
DNA 1: GACCATGCTTAGGGTTAGGGTTATCATACAAGTTAGGGTTAGGG
DNA 2: TTGTATGATAACCCTAACCCTAAGCATGGTC
Turning to B1, the binding result with TRF2 was “binds”.

B2: ybbR-tagged human TRF2 (natural protein, UniProt Q15554 1-542, looked up)
chain: MAAGAGTAGPASGPGVVRDPAASQPRKRPGREGGEGARRSDTMAGGGGSSDGSGRAAGRRASRSSGRARRGRHEPGLGGPAERGAGEARLEEAVNRWVLKFYFHEALRAFRGSRYGDFRQIRDIMQALLVRPLGKEHTVSRLLRVMQCLSRIEEGENLDCSFDMEAELTPLESAINVLEMIKTEFTLTEAVVESSRKLVKEAAVIICIKNKEFEKASKILKKHMSKDPTTQKLRNDLLNIIREKNLAHPVIQNFSYETFQQKMLRFLESHLDDAEPYLLTMAKKALKSESAASSTGKEDKQPAPGPVEKPPREPARQLRNPPTTIGMMTLKAAFKTLSGAQDSEAAFAKLDQKDLVLPTQALPASPALKNKRPRKDENESSAPADGEGGSELQPKNKRMTISRLVLEEDSQSTEPSAGLNSSQEAASAPPSKPTVLNQPLPGEKNPKVPKGKWNSSNGVEEKETWVEEDELFQVQAAPDEDSTTNITKKQKWTVEESEWVKAGVQKYGEGNWAAISKNYPFVNRTAVMIKDRWRTMKRLGMN
modifications: Cy3 (from CoA-Cy3, by Sfp phosphopantetheinyl transferase) on the ybbR tag
notes: also called TRF2 (ybbR tag); source: Tni insect cells (baculovirus), co-expressed, purified as complex, labelled with CoA-Cy3 by Sfp
With B2, the “stoichiometry N” value in the data set with ybbR-tagged human TIN2 was determined as 2 TRF2 per TIN2.

What is called stoichiometry N is the number of molecules, sites or subunits per partner or assembly.
